In publication PMC9256674, “Structures of LIG1 that engage with mutagenic mismatches inserted by polβ in base excision repair”:
Each block holds one molecule with its values, some of them ahead of it.

Experiments:
[1] = target: AP-endonuclease 1 (human) (UniProt P27695); test: SPR; Biacore X-100; APE1 amine-coupled on a CM5 chip, 25 °C; LIG1 0-1.6 µM injected as analyte in 20 mM HEPES pH 7.4, 150 mM NaCl, 3 mM EDTA, 0.005% Surfactant P20; 1:1 (Langmuir) fit
[2] = target: T1, LIG1 EE/AA (C-terminal, Δ261) (Homo sapiens, UniProt P18858 262-919, E346A;E592A); test: X-ray crystallography (2.8 Å); AMP covalently on K568 (LIG1-AMP, step 1); no Mg2+; Crystallization conditions not in the material; LIG1 final purification buffer 20 mM Tris-HCl pH 7.0, 200 mM NaCl, 1 mM DTT; storage 25 mM Tris-HCl pH 7.0, 200; settings: protein: recombinant; nicked duplex: 11-mer upstream + 7-mer 5'-P downstream on 18-mer template; blunt ends; A:C wobble mismatch at nick 3'-end
[3] = target: T1, LIG1 EE/AA (C-terminal, Δ261); test: X-ray crystallography (2.9 Å); AMP as DNA-AMP (step 2); no Mg2+; Crystallization conditions not in the material; LIG1 final purification buffer 20 mM Tris-HCl pH 7.0, 200 mM NaCl, 1 mM DTT; storage 25 mM Tris-HCl pH 7.0, 200; settings: protein: recombinant; nicked duplex: 11-mer upstream + 7-mer 5'-P downstream on 18-mer template; blunt ends; A:T at nick 3'-end
[4] = target: T1, LIG1 EE/AA (C-terminal, Δ261); test: X-ray crystallography (3.0 Å); AMP as DNA-AMP (step 2); no Mg2+; Crystallization conditions not in the material; LIG1 final purification buffer 20 mM Tris-HCl pH 7.0, 200 mM NaCl, 1 mM DTT; storage 25 mM Tris-HCl pH 7.0, 200; settings: protein: recombinant; nicked duplex: 11-mer upstream + 7-mer 5'-P downstream on 18-mer template; blunt ends; G:T wobble mismatch at nick 3'-end

T1 sequence (P18858 262-919 E346A/E592A): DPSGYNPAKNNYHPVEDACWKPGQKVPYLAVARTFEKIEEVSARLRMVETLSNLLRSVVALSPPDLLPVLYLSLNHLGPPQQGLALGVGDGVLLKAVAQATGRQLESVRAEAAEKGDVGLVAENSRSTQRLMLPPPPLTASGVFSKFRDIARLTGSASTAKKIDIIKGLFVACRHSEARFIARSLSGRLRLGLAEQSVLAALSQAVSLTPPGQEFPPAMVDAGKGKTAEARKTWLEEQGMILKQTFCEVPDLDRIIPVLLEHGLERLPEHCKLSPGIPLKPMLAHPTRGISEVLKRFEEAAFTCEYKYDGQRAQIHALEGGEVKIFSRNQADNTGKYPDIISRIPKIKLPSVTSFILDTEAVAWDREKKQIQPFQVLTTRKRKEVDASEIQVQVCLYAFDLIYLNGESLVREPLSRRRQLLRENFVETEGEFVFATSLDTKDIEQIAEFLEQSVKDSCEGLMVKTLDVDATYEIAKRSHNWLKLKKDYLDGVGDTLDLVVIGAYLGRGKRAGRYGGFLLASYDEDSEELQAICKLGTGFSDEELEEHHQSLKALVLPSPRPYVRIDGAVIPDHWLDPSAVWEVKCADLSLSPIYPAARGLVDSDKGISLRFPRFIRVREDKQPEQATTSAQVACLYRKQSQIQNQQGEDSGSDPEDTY
Sequence of AP-endonuclease 1 (human) (P27695 whole entry): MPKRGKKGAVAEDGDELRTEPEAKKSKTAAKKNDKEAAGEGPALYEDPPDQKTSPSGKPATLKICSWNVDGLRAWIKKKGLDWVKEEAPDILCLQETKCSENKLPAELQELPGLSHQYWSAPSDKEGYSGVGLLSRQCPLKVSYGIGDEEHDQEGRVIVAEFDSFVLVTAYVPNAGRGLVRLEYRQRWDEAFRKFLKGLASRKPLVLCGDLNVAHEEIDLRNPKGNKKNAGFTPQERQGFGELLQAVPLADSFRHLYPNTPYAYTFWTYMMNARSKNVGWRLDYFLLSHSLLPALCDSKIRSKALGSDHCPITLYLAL

Kd [1]: 117 nM
Molecule: DNA ligase I (from UniProt P18858 1-919) (enzyme)

B1: nick DNA 3'-A:C (dsDNA)
DNA 1: GCTGATGCGTA
DNA 2: GTCGGAC
DNA 3: GTCCGACCACGCATCAGC
modifications: 5'-phosphate on downstream strand (GTCGGAC), not adenylated
binding result [2]: binds

B2: nick DNA 3'-A:T (dsDNA)
DNA 1: GCTGATGCGTA
DNA 2: GTCGGAC
DNA 3: GTCCGACTACGCATCAGC
modifications: 5'-phosphate on downstream strand (GTCGGAC); adenylated (5'-AMP) in the crystal
binding result [3]: binds

B3: nick DNA 3'-G:T (dsDNA)
DNA 1: GCTGATGCGTG
DNA 2: GTCGGAC
DNA 3: GTCCGACTACGCATCAGC
modifications: 5'-phosphate on downstream strand (GTCGGAC); adenylated (5'-AMP) in the crystal
binding result [4]: binds
